Positions count from the first letter of the chain named. Numbers in names are those of the source.

For experiment [1], the target named is T1, human vascular endothelial growth factor receptor-2 Fc chimera (KDR-Fc) (human, UniProt P35968 20-764).
T1 construct: range 1-764; purchased from R&D Systems; also called hKDR; human VEGF-R2-Fc; not shown: human IgG1 Fc
The experiment can be described thus: radioactive equilibrium binding assay, KDR-Fc. The procedure:
(§1) To prepare ³⁵S-labeled binding proteins for analysis, mRNA was prepared as described above for RNA-protein fusion production but the linker ligation step was omitted. The mRNA was expressed using rabbit reticulocyte lysate translation kit (Ambion) in the presence of ³⁵S-labeled Met at 30° C. for 1 hour. Expressed protein was purified on M2-agarose Flag beads (Sigma) as described above. This procedure produced the encoded protein without the nucleic acid tail. In a direct binding assay, VEGF-R2-Fc fusions in concentrations ranging from 0 to 200 nM were added to a constant concentration of the purified protein (0.2 or 0.5 nM) and incubated at 30° C. for 1 hour in buffer B. The receptor-binder complexes were captured using Protein A magnetic beads for another 10 minutes at room temperature using a Kingfisher™ The beads were washed with six reaction volumes of buffer B. The protein was eluted from the beads with 100 μL of 0.1 M KOH. […] of the reaction mixture and elution were dried onto a LumaPlate-96 (Packard) and the amount of ³⁵S on the plate was measured using a TopCount NXT instrument (Packard). The amount of fibronectin-based scaffold protein bound to the target was estimated as a percent of radioactivity eluted from Protein A magnetic beads compare to radioactivity in the reaction mixture. Nonspecific binding of fibronectin-based scaffold proteins to the beads was determined by measuring binding in the absence of KDR-Fc and represented less than 1-2% of the input. Specific binding was obtained through subtraction of nonspecific binding from total binding. Data was analyzed using the GraphPad Prizm software (GraphPad Software, Inc, San Diego, Calif.), fitted using a one site, non-linear binding equation.

In experiment [2] the target is T1, human vascular endothelial growth …. Put plainly: radioactive equilibrium binding, 1 nM KDR-Fc. The method in brief:
(§2)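 Tracer: ³⁵S-Met protein from reticulocyte lysate, Flag-bead purified, no nucleic acid tail. 0.2/0.5 nM binder + 0–200 nM receptor-Fc, 30° C 1 h, buffer B; Protein A bead capture 10 min RT; 0.1 M KOH elution; scintillation count.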

Experiment [3] shares this target. Put plainly: radioactive equilibrium binding. The procedure:
as §1, with “In a direct binding assay, VEGF-R2-Fc fusions in concentrations ranging from 0 to 200 nM were added to a constant concentration of the purified protein (0.2 or 0.5 nM) and incubated at 30° C. for 1 hour in buffer B. The receptor-binder complexes were captured using Protein A magnetic beads for another 10 minutes at room temperature using a Kingfisher™ The beads were washed with six reaction volumes of buffer B. The protein was eluted from the beads with 100 μL of 0.1 M KOH.” left out, “Specific binding was obtained through subtraction of nonspecific binding from total binding.” left out

For experiment [4] the target is unchanged. The experiment can be described thus: BIAcore, target-Fc immobilized. On the procedure:
(§3) The binding kinetics of fibronectin-based scaffold proteins binding proteins to the target was measured using BIAcore 2000 biosensor (Pharmacia Biosensor). Human and mouse VEGF-R2-Fc fusions were immobilized onto a CM5 sensor chip and soluble binding proteins were injected at concentrations ranging from 0 to 100 nM in buffer 0 (10 mM HEPES, 150 mM NaCl, 0.005% Tween 20, pH 7.4). Sensorgrams were obtained at each concentration and were evaluated using a program, BIA Evaluation 2.0 (BIAcore), to determine the rate constants kₐ (kₒₙ) and kd (koff.) The affinity constant, KD was calculated from the ratio of rate constants […].
In general terms: In SPR one partner is held on a chip, and binding of the other changes the refractive index at the surface.

Experiment [5] concerns the target T2, mouse vascular endothelial growth factor receptor-2 Fc chimera (Flk-1-Fc) (mouse, UniProt P35918 20-762).
T2 construct: purchased from R&D Systems; also called mouse VEGF-R2-Fc; not shown: Fc part of the purchased chimera
Put plainly: radioactive equilibrium binding assay.
T2 sequence (P35918 20-762, change not shown): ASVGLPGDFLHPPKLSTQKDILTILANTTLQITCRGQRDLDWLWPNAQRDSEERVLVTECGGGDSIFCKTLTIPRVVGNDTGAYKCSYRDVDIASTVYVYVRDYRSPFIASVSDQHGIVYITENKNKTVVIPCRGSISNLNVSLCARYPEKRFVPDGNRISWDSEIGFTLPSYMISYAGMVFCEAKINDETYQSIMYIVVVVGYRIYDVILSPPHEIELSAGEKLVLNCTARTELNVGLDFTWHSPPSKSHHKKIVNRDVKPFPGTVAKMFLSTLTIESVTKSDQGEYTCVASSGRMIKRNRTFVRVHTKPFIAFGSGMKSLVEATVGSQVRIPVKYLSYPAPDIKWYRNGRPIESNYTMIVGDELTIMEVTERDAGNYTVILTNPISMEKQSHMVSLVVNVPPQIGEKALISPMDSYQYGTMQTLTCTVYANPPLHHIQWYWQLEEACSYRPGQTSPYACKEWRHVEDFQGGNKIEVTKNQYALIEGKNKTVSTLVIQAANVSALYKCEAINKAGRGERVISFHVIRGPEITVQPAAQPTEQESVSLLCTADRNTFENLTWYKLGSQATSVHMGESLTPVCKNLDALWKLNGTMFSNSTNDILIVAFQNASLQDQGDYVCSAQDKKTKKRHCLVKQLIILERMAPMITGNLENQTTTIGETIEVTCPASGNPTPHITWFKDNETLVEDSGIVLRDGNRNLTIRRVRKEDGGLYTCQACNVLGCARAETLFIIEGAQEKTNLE

Experiment [6] concerns the target T1, human vascular endothelial growth …. The experiment can be described thus: radioactive equilibrium binding assay.
Experiment [7] deals with mouse vascular endothelial growth factor receptor-2 Fc chimera (Flk-1-Fc) (mouse) (UniProt P35918). The experiment can be described thus: assay not given.
Experiment [8] addresses T3, human vascular endothelial growth factor receptor-2 Fc chimera (KDR-Fc) (human, UniProt P35968 20-764).
T3 construct: range 1-764; also called human VEGFR-2; hKDR; not shown: human IgG1 Fc
The experiment can be described thus: radioactive equilibrium binding (assay not given).

Experiment [9] concerns the target T3, human vascular endothelial growth …. Put plainly: binding to 1 nM KDR-Fc, % of input; radioactive equilibrium binding (assay not given). A digest of the protocol:
as §2

Experiment [10] deals with T4, mouse vascular endothelial growth factor receptor-2 Fc chimera (Flk-1-Fc) (mouse, UniProt P35918 20-762).
T4 construct: Purchased from R&D Systems; also called mouse VEGF-R2; not shown: Fc part of the purchased chimera
The experiment can be described thus: radioactive equilibrium binding assay with VEGFR-2-Fc chimeras (FIG. 4). The procedure:
as §1, with “In a direct binding assay, VEGF-R2-Fc fusions in concentrations ranging from 0 to 200 nM were added to a constant concentration of the purified protein (0.2 or 0.5 nM) and incubated at 30° C. for 1 hour in buffer B. The receptor-binder complexes were captured using Protein A magnetic beads for another 10 minutes at room temperature using a Kingfisher™ The beads were washed with six reaction volumes of buffer B. The protein was eluted from the beads with 100 μL of 0.1 M KOH.” left out, “Specific binding was obtained through subtraction of nonspecific binding from total binding.” left out
T4 sequence (P35918 20-762, change not shown): as above

The target in experiment [11] is full-length human KDR on cells (human, UniProt P35968 20-1356). The experiment can be described thus: cell-based or functional assay.
Experiment [12] addresses T4, mouse vascular endothelial growth …. The experiment can be described thus: Kd for Flk-1 against clone 159Q(8)L.
The target is the same in experiment [13]. The experiment can be described thus: KD against mouse Flk-1 by the BIAcore binding assay; value not given. On the procedure: Following the methodologies described in the preceding Examples, additional ¹⁰Fn3-based KDR binding proteins were generated. As described for the development of the M5FL protein in Example 5, above, proteins were tested for KD against human KDR and mouse Flk-1 using the BIAcore binding assay and for IC50 in a Ba/F3 assay.
as §3
Target sequence in this assay (P35918 20-762, change not shown): as above

In experiment [14] the target is human KDR/EpoR fusion (phKE8) on Ba/F3 cells (human, UniProt P35968 20-764; P19235 251-508, limits assumed). Put plainly: cell-based or functional assay.
In experiment [15] the target is T5, murine VEGFR-2/EpoR chimera (flk-1/EpoR fusion, pmKE2) on cells (mouse; human, UniProt P35918 20-762; P19235 251-508, limits assumed). Put plainly: cell-based or functional assay.
For experiment [16], the target named is T5, murine VEGFR-2/EpoR chimera (flk-1/EpoR …). The experiment can be described thus: flow cytometry on CHO Flk-1 cells. The procedure: (§4) The functionality of KDR and Flk-1 binding molecules in a cell culture model system was evaluated with E. coli produced binding molecules.
(§5) Binding of fibronectin-based scaffold protein to cell-surface KDR and Flk-1 was analyzed simultaneously on VEGF-R2-expressing and control cells by flow cytometry. CHO-pcDNA3 cells (control) were released from their dishes with trypsin-EDTA, washed in Dulbecco's PBS without calcium and magnesium (D-PBS⁻; Invitrogen), and stained for 30 minutes at 37° C. with 1.5 μM CMTMR (5-(and -6)-(((4-chloromethyl)benzoyl)amino)-tetramethylrhodamine) (Molecular Probes). The cells were washed in D-PBS⁻ and incubated for a further 30 minutes at 37° C., and then resuspended in blocking buffer (D-PBS⁻/10% fetal bovine serum) on ice. CHO-KDR or CHO-Flk cells were treated identically except that CMTMR was omitted. 75,000 of CMTMR-stained CHO-pcDNA3 cells were mixed with an equal number of unstained CHO-KDR or CHO-Flk cells in each well of a V-bottom 96-well plate. All antibodies and fibronectin-based scaffold proteins were diluted in 25 μl/well of blocking buffer, and each treatment was conducted for 1 hour at 4° C. Cell mixtures were stained with His₆-tagged (SEQ ID NO: 235) fibronectin-based scaffold proteins, washed twice with cold D-PBS⁻, and then treated with 2.5 μg/ml anti-His₆ (SEQ ID NO: 235) MAb (R&D Systems), washed, and stained with 4 μg/ml Alexa Fluor 488-conjugated anti-mouse antibody (Molecular Probes). For cells treated with an anti-KDR mouse monoclonal antibody (Accurate Chemical, Westbury, N.Y.) or an anti-flk-1 goat polyclonal antibody (R&D Systems), the anti-His₆ (SEQ ID NO: 235) step was omitted, and antibody binding was detected with the species-appropriate Alexa Fluor 488 conjugated secondary antibody (Molecular Probes). Following staining, cells were resuspended in 200 μl/well D-PBS⁻/1% FBS/1 μg/ml 7-aminoactinomycin D (7-AAD; Molecular Probes) and analyzed by flow cytometry on a FACSCalibur (Becton Dickinson, San Jose, Calif.) equipped with a […].
(A flow cytometer gives signals particle by particle.)

The target of experiment [17] is T6, full-length human KDR on cells (human, UniProt P35968 20-1356).
T6 construct: whole, on cells; also used here as the target for the HUVEC rows (natural human endothelial cells); also called CHO KDR; CHO-KDR
Put plainly: flow cytometry on CHO KDR cells. The procedure: as §4, §5

Experiment [18] addresses T2, mouse vascular endothelial growth …. The experiment can be described thus: BIAcore, target-Fc immobilized. The procedure: as §3
Experiment [19] addresses T6, full-length human KDR on cells. The experiment can be described thus: cell-based or functional assay. This is another data set of the same source.

T5 sequence (P35918 other isoform, or with tags, fused parts or gaps mutant limits assumed, form in doubt): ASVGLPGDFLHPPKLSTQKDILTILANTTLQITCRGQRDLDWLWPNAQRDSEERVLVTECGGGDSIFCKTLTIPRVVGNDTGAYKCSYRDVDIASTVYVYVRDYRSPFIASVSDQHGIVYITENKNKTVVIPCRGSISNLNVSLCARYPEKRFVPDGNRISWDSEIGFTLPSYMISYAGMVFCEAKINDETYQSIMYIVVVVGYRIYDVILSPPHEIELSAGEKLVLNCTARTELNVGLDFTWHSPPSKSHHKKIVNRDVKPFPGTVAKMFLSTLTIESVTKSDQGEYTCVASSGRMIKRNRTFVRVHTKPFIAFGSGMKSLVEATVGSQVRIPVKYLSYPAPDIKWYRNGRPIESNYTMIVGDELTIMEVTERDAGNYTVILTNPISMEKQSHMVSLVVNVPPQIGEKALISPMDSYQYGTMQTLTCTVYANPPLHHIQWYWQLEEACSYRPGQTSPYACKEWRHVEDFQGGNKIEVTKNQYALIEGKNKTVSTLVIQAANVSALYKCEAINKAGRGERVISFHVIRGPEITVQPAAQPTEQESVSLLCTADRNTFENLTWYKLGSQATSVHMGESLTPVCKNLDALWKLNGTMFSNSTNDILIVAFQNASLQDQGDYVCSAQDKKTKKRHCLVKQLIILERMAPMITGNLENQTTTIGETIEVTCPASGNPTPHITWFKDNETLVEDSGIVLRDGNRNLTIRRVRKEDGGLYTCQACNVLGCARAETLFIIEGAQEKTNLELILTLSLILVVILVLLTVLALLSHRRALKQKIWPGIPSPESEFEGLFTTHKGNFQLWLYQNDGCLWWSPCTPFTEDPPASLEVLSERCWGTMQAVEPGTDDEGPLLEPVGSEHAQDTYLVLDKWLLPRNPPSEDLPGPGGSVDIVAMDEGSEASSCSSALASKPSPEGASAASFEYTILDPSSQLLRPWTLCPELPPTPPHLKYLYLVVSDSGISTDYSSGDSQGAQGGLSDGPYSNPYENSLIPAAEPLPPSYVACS
Chain of mouse vascular endothelial growth factor receptor-2 Fc chimera (Flk-1-Fc) (mouse) (P35918 20-762, change not shown): as the sequence (P35918 20-762, change not shown) above

B1: VR28 (designed binder)
chain: VSDVPRDLEVVAATPTSLLISWRHPHFPTRYYRITYGETGGNSPVQEFTVPLQPPTATISGLKPGVDYTITGYAVTVAQNDHELITPISINYRT
notes: scaffold said to be unchanged from wild type 10Fn3; Flag-tagged in vitro translated protein in the radioactive assay, His6-tagged E. coli protein in BIAcore; tags left out; also called VR28 (I69T)
B1: the Kd (in general, the free concentration of one partner at which half of the binding sites on the other are occupied at equilibrium, for simple one-to-one binding) in experiment [1] stood at 11 nM; in experiment [3], 11 nM; in [4], 13 nM; in experiment [6], 11 nM. For the same molecule, the “Binding to 1 nM KDR, %” value in [2] was 3%. In addition, in [4], the koff (in general, the first-order rate constant of dissociation) was found to be 0.00034 s⁻¹. The kon – broadly, a measure of how fast the partners come together – in [4] came to 30000 M⁻¹ s⁻¹. The binding result in experiment [5] is listed as “no binding (tested: 100 nM)”.

B2: 159(Q8L) (designed binder)
chain: B1 chain with T56A, V77M, N80S, D81G, I85F
notes: clone 159 with Q8 corrected to the wild type L; His6-tagged E. coli protein in BIAcore, tag left out; also called Clone 159 (Q8L)
In the case of B2, in experiment [7], the Kd was more than 3000 nM. For the same molecule, in [4], the Kd amounted to 2 nM, the koff is 0.0001 s⁻¹ and the kon turned out to be 50000 M⁻¹ s⁻¹.

B3: VR28 (designed binder)
chain: B1 chain
notes: 10Fn3 clone with WT N-terminus; tag not included; also called VR28 (I69T); VR28 clone
Consider B3, for which the dissociation constant (Kd) in experiment [8] came to 11 nM. The “Binding to 1 nM KDR, %” value in experiment [9] is 3%. In addition, the binding result in experiment [10] is recorded as “no binding”.

B4: M5FL (designed binder)
chain: B1 chain with T56L, V77K, A78E, Q79R, D81G, H82R, I85F
notes: 10Fn3 clone with WT N-terminus; Tail and tag not included here; also called clone M5FL
B4: the “HUVEC proliferation assay: decrease in proliferation” value in experiment [11] was approximately 40%. The “fold improvement over the original clone (159Q(8)L)” value in experiment [12] came to 1000 fold.

B5: CT-01 (designed binder)
chain: EVVAATPTSLLISWRHPHFPTRYYRITYGETGGNSPVQEFTVPLQPPTATISGLKPGVDYTITVYAVTDGRNGRLLSIPISINYRT
notes: Core form of CT-01
Regarding B5, in experiment [13], the binding result is recorded as “binds”.

B6: E19 (designed binder)
chain: B5 chain with V64G, D69V, G70E, L75H, S77M, I78T
notes: Del 1-8 10Fn3 clone; Flag-tagged in vitro translated protein in the radioactive assay, His6-tagged E. coli protein in BIAcore and cell assays; tags left out
As for B6, the “Inhibition of VEGF-induced proliferation, Ba/F3-KDR (IC50, nM)” value in [14] amounted to 12.3 nM. In addition, the “Inhibition of VEGF-induced proliferation, Ba/F3-Flk (IC50, nM)” value in experiment [15] was 5.8 nM. Further, the figures for the concentration for a half-maximal effect (EC50) in [16] and in experiment [17] were 5.3 nM and 7.6 nM, respectively. The Kd in experiment [18] is 0.34 nM; in experiment [4], 0.06 nM; in [5], less than 0.7 nM; in [6] it was less than 1.3 nM. For the same molecule, the off-rate (koff) in experiment [18] came to 0.000223 s⁻¹; in experiment [4], 1.7e-05 s⁻¹. In addition, the kon in experiment [18] amounted to 660000 M⁻¹ s⁻¹; in experiment [4], 300000 M⁻¹ s⁻¹. In addition, in [19], the “Inhibition of VEGF-induced proliferation of HUVEC cells (IC50, nM)” value was found to be 11.8 nM.

B7: E29 (designed binder)
chain: B5 chain with V64G, D69V, G70E, L75V, S77M, I78T
notes: as for B6
Consider B7, for which, in experiment [14], the “Inhibition of VEGF-induced proliferation, Ba/F3-KDR (IC50, nM)” value worked out at 10 nM. Moreover, in [15], the “Inhibition of VEGF-induced proliferation, Ba/F3-Flk (IC50, nM)” value stood at 4.7 nM. The concentration giving a half-maximal response (EC50) (usually the concentration needed to bring the measured effect to its halfway point) is 0.6 nM in experiment [16] and 2.3 nM in experiment [17]. In addition, the Kd in experiment [18] is 0.37 nM; in experiment [4], 0.19 nM; in experiment [5], less than 0.9 nM; in experiment [6], less than 1.5 nM. For the same molecule, the koff in experiment [18] stood at 0.000288 s⁻¹; in experiment [4], 7e-05 s⁻¹. In addition, the kon in [18] turned out to be 790000 M⁻¹ s⁻¹; in experiment [4] it was 360000 M⁻¹ s⁻¹. Moreover, in experiment [19], the “Inhibition of VEGF-induced proliferation of HUVEC cells (IC50, nM)” value turned out to be 8.4 nM.

(Values after patent publication US20140179896A1 (published 2014).)
